Results on two molecules are retold here after patent publication US9592268B2, “Endothelium protective materials and methods of use” (CORNELL UNIVERSITY, priority 2011, dated 2017).

The test system of assay [1] is HUVEC. Nature of the assay: adherens junction assembly assay (VE-cadherin immunostaining) in HUVEC. The settings on record: HUVEC stimulated 1 h; HDL 100 μg/ml; S1P complexes or r-apoM 100 nM. Format: cell-based, human. The method, then:
(§1) FIG. 4. ApoM-bound S1P activates S1P1-mediated intracellular signaling pathways and affects migration of HUVEC. (A) Confocal microscopy of HEK293 cells stably expressing S1P1-GFP. Cells were serum starved, stimulated for 1 h with indicated ligands, fixed and imaged. ApoM^+HDL (equivalent to ˜100 nM S1P as determined by LC/MS/MS) or ApoM^−HDL was used at 100 μg/ml. Fatty acid free BSA and r-apoM were complexed with S1P and used at the final concentration of 100 nM (equimolar for both protein and lipid). Scale bar, 20 μm. […] Activation of p44/42, and Akt was examined by western blot analysis using phospho-specific antibodies. (C) HUVEC were serum starved and pre-treated with 1 μM VPC44116 for 30 min where indicated and subjected to migration assay with 10 μg/ml apoM^+HDL (10 nM S1P) or 10 μg/ml apoM^−HDL or 10 nM albumin-S1P. Data are mean±SD, n=3. * p<0.01. (D) Microscopy of HUVEC that were serum starved and stimulated with 100 μg/ml apoM^+HDL, apoM^−HDL, 100 nM albumin-S1P, r-apoM-S1P or 100 nM S1P-free r-apoM for 1 h. […] Scale bar, 20 μm. HUVEC were serum starved and stimulated for 5 min with 30 nM albumin-S1P, r-apoM-S1P, 10 μg/mL ApoM+ HDL, or 30 nM S1P-free r-apoM (E) or with increasing concentrations of albumin or r-apoM-S1P (F). Activation of p44/42 and Akt was examined by Western blot analysis using phospho-specific antibodies. […]

For another assay, the system named is VCAM-1. Nature of the assay: TNFα-induced cell surface VCAM-1 expression in HUVEC by flow cytometry. Format: cell-based, human. The settings on record: for suppression of cytokine-induced VCAM-1 expression: human endothelial cells (FIG. 9). The method, then:
FIG. 9. ApoM/S1P inhibition of endothelial cell VCAM-1 expression. Human umbilical vein endothelial cells (HUVEC) were treated with TNFα for 3 hr. Some cells were co-treated with recombinant (r)ApoM (100 nM) or rApoM/S1P complex (100 nM) or albumin/S1P complex (100 nM) for the same amount of time. The cells were then analyzed for the cell surface expression of Vascular cell adhesion molecule (VCAM)-1 by flow cytometry. Note that ApoM/S1P complex inhibited (˜40%) TNFα-induced VCAM-1 expression.
Inflammation of vascular endothelial cells is a critical initiating event in atherosclerosis, which leads to heart attacks and strokes. Endothelial cell inflammation is induced by cytokines such as TNFα and IL-1β. When endothelial cells are exposed to such cytokines, an inflammatory program of gene expression is induced, resulting in the formation of adhesion molecules such as VCAM-1, which in turn is needed for the recruitment of monocytes into the blood vessel wall. […] Thus, ApoM/S1P complexes can be used to suppress vascular inflammation as a potential treatment for atherosclerosis.
(In general: Flow cytometry measures light scatter and fluorescence of single cells or particles in a stream.)

The target in a further assay is T1, S1P1 receptor (Homo sapiens, UniProt P21453).
T1 construct: expressed in transfected cells
T1 sequence (P21453 whole entry): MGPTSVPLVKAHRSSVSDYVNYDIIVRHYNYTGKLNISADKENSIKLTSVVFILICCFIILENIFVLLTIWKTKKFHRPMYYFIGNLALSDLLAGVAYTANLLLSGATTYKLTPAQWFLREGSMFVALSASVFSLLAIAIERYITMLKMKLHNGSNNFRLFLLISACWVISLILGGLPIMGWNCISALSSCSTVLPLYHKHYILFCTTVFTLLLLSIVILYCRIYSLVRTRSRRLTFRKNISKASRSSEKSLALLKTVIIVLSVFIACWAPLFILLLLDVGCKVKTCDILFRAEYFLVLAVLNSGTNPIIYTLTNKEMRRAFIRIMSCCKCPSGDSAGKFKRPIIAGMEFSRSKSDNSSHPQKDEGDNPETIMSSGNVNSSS
Briefly: S1P1 internalization in HEK293 cells stably expressing S1P1-GFP. Format: cell-based. The settings on record: stimulated 1 h; HDL 100 μg/ml; S1P complexes 100 nM. The method, then:
as §1, with “(F).” for “(F). Activation of p44/42 and Akt was examined by Western blot analysis using phospho-specific antibodies.”
General Methods. […] Numerical differences were analyzed with two-tailed Student's t test. […]

Assay [2] has as its system HUVEC. Nature of the assay: HUVEC migration (chemotaxis chamber) assay. Format: cell-based, human. The method, then:
as §1, with “μm.” for “μm. HUVEC were serum starved and stimulated for 5 min with 30 nM albumin-S1P, r-apoM-S1P, 10 μg/mL ApoM+ HDL, or 30 nM S1P-free r-apoM (E) or with increasing concentrations of albumin or r-apoM-S1P (F). Activation of p44/42 and Akt was examined by Western blot analysis using phospho-specific antibodies.”
General Methods. […] Numerical differences were analyzed with two-tailed Student's t test.
Migration Assays. […] The filter was scanned, and the color density of each well was quantified using ImageJ software. […]

Positions count from the first letter of the chain named. Names and notes keep the numbering of the source.

B1: r-apoM-bound S1P: S1P complexed with equi-molar recombinant apoM (protein, UniProt O95445 1-188, looked up)
Apolipoprotein M: MFHQIWAALLYFYGIILNSIYQCPEHSQLTTLGVDGKEFPEVHLGQWYFIAGAAPTKEELATFDPVDNIVFNMAAGSAPMQLHLRATIRMKDGLCVPRKWIYHLTEGSTDLRTEGRPDMKTELFSSSCPGGIMLNETGQGYQRFLLYNRSPHPPEKCVEEFKSLTSCLDSKAFLLTPRNQEACELSNN
modifications: complexed with S1P
As to B1, the “adherens junction and F-actin formation” value in the assay on HUVEC [1] is “well-spread, contained F-actin and formed adherens junctions”. For the same molecule, the “inhibition of TNFα-induced VCAM-1 expression” value in the assay on VCAM-1 (100 nM, co-treated with TNFα for 3 hr) was about 40%. Besides, the “suppression of cytokine-induced VCAM-1 expression” value in the assay with VCAM-1 is listed as “significant suppression”. For the same molecule, in the assay with S1P1 receptor, the “internalization of GFP-S1P1 receptor” value is “induced robust internalization”. Moreover, the “chemoattractant activity compared with albumin-bound S1P” value in the assay on HUVEC [2] (increasing concentrations (FIG. 4G)) is recorded as “slightly higher activity”. Besides, the “chemotaxis of HUVEC toward chemoattractant” value in the assay with HUVEC [2] (serum-starved HUVEC, 4 h at 37° C.) is “worked as chemoattractants in a concentration-dependent manner”.

B2: r-apoM without S1P: recombinant apoM not complexed with S1P (protein, UniProt O95445 1-188, looked up)
Apolipoprotein M: B1 Apolipoprotein M
Turning to B2, the “adherens junction and F-actin formation” value with HUVEC [1] is reported as “not efficiently induced”. For the same molecule, the “suppression of cytokine-induced VCAM-1 expression” value with VCAM-1 is recorded as “not seen”. Moreover, the “internalization of GFP-S1P1 receptor” value with S1P1 receptor was “Neither apoM^−HDL nor r-apoM without S1P caused receptor internalization”.
